Square brackets hold non-standard residues; d marks the D form. Peptide text beside a SMILES is read from it. * marks the point of attachment. X3 = O=C(CCCCCNCc1nc2c(sc3cc(Br)cnc32)c(=O)[nH]1)*
Experiments:
Assay in all cases: Kinase profiling (radiometric filter-binding)
Type in all cases: biochemical
Aurora A = biological target: T1, Aurora A (Homo sapiens, UniProt O14965); conditions: 1 µM inhibitor, read-out: Residual activity, %
T1 sequence (O14965 1-403): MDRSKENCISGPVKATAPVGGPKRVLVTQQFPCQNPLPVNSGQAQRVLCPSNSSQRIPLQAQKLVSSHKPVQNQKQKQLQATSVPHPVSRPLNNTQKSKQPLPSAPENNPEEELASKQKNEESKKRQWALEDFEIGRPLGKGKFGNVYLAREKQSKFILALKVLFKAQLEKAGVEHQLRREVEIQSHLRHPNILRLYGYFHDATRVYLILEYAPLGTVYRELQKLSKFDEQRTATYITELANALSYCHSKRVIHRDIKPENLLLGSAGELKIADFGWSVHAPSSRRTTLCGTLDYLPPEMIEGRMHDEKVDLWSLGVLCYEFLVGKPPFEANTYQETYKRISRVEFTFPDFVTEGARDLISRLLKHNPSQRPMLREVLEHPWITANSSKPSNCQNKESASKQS
In short: (§1)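 Each compound, at 1 µM final, is screened against human protein kinases in a radiometric filter-binding format. ATP is set at or under the KM of each kinase. Values give retained activity relative to a control lacking inhibitor.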

CHK2 = CHK2 (Homo sapiens, UniProt O96017); conditions: CHK2, 1 µM inhibitor; read-out: Residual activity, %
Sequence of CHK2 (O96017 whole entry): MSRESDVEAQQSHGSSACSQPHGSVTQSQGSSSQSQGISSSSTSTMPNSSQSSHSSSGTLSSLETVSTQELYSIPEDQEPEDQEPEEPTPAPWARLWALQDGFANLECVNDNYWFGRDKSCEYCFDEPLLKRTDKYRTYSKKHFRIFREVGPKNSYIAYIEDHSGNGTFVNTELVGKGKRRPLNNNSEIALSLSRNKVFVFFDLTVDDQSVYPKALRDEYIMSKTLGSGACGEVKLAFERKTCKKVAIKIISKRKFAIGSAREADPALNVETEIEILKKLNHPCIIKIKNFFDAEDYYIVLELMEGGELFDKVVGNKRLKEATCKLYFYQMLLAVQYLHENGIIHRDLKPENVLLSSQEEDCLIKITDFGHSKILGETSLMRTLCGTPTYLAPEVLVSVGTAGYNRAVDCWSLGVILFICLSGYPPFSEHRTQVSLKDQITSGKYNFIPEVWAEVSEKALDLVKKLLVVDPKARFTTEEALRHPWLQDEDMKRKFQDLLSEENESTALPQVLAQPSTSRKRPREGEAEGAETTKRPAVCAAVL
In short: as §1

CK1δ = CK1δ (Homo sapiens, UniProt P48730); conditions: 1 µM inhibitor, read-out: Residual activity, %
Sequence of CK1δ (P48730 whole entry): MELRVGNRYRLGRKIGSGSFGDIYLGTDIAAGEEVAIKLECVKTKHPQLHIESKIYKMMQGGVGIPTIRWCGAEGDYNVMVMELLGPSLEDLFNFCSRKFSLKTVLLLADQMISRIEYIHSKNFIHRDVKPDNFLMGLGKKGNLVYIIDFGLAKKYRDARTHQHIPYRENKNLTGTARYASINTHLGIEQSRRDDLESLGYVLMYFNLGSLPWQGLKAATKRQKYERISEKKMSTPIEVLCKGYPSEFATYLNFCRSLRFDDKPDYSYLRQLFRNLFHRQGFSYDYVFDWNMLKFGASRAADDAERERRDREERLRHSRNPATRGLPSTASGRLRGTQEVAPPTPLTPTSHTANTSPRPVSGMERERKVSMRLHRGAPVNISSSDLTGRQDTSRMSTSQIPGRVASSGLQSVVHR
In short: as §1

EIF2AK3 = biological target: T2, EIF2AK3 (Homo sapiens, UniProt Q9NZJ5); conditions: EIF2AK3, 1 µM inhibitor; read-out: Residual activity, %
T2 sequence (Q9NZJ5 30-1116): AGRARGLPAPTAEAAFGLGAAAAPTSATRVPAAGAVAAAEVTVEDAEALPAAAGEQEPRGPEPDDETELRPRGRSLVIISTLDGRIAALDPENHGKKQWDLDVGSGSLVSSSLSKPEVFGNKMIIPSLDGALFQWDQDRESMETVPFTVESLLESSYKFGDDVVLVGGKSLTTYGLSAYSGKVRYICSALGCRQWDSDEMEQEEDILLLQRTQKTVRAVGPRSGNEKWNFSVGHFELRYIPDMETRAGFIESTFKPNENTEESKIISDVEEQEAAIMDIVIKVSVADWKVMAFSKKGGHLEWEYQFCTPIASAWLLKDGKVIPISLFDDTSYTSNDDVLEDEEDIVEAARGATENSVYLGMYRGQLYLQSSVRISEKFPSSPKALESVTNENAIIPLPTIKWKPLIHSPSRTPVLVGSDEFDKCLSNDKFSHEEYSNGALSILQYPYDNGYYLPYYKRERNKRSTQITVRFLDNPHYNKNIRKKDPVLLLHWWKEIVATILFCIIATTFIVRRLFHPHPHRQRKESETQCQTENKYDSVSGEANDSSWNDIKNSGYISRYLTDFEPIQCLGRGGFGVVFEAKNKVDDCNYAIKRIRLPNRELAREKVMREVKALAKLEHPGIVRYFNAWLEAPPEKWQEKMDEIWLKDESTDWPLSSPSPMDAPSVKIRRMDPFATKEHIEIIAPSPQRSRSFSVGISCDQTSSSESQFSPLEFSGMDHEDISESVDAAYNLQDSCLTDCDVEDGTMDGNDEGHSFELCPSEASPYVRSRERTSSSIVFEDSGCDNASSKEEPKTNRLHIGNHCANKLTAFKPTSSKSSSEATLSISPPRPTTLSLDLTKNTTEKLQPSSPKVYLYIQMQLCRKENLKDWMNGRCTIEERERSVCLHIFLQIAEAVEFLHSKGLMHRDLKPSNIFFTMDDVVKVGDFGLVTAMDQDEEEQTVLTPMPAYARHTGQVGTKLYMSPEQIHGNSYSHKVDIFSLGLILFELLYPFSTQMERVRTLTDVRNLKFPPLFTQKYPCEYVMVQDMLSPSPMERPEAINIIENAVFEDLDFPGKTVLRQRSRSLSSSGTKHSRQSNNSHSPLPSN
In short: as §1

EPH-A4 = EPH-A4 (Homo sapiens, UniProt P54764); conditions: EPH-A4, 1 µM inhibitor; read-out: Residual activity, %
Sequence of EPH-A4 (P54764 20-986): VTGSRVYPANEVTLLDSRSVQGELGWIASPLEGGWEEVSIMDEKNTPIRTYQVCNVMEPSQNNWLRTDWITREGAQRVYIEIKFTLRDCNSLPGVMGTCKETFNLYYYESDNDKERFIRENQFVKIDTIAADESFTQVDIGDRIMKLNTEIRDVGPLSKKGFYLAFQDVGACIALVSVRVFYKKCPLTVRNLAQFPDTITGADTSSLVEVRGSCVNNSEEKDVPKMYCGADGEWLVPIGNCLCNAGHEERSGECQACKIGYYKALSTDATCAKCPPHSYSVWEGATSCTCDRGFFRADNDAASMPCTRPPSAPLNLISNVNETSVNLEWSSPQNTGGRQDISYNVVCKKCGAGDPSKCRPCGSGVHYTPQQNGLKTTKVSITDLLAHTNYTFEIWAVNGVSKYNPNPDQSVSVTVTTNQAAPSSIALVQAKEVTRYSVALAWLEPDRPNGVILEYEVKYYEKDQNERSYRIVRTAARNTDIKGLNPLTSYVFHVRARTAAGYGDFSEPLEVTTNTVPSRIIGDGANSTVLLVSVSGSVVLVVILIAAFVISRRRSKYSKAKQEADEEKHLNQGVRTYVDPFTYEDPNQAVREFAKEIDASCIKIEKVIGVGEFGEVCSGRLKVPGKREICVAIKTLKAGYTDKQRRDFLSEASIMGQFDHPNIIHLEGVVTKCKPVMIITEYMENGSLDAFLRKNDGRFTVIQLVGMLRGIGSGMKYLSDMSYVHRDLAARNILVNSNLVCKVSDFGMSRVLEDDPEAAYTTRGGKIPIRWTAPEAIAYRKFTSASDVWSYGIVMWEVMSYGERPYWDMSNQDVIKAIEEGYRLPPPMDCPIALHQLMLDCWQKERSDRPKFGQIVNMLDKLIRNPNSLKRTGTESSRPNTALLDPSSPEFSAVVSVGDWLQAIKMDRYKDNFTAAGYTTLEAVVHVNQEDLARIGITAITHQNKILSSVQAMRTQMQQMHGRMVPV
In short: as §1

ULK1 = biological target: T3, ULK1 (Homo sapiens, UniProt O75385); conditions: ULK1, 1 µM inhibitor; read-out: Residual activity, %
T3 sequence (O75385 1-1050): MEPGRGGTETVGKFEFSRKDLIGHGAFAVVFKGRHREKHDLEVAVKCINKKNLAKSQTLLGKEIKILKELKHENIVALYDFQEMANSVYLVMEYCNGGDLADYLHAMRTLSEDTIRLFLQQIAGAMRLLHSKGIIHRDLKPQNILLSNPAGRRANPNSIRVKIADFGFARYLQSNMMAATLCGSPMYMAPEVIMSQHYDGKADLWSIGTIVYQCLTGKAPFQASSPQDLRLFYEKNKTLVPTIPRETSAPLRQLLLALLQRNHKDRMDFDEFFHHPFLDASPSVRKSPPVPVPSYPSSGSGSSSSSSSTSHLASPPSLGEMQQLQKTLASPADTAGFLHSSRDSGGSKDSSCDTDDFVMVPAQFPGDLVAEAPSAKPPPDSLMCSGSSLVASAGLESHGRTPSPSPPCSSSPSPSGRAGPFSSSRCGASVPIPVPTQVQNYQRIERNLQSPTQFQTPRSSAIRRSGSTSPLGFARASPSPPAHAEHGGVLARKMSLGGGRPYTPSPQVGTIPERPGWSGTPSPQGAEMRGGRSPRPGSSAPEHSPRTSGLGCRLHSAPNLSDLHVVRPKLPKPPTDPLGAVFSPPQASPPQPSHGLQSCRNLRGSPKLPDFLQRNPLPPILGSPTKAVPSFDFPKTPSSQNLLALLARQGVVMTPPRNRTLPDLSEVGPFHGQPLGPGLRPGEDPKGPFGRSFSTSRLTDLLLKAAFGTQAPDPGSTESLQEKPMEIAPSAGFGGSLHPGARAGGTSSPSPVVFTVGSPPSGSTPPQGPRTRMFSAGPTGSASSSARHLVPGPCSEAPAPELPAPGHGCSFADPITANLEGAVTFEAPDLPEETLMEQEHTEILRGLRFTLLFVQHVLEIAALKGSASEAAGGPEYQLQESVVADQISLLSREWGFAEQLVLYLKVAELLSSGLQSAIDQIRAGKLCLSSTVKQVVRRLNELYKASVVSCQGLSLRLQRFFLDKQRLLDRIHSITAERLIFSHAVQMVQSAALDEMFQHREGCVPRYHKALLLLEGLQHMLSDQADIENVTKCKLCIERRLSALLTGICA
In short: as §1

Row | Structure (SMILES) | remaining activity at 1 µM (Aurora A) | remaining activity at 1 µM (CHK2) | remaining activity at 1 µM (CK1δ) | remaining activity at 1 µM (EIF2AK3) | remaining activity at 1 µM (EPH-A4) | remaining activity at 1 µM (ULK1)
1 | N=C(N)NCCC[C@@H](NC(=O)CCCCCNC(=O)Cn1cnc2c(I)c(I)c(I)c(I)c21)C(=O)N[C@H](CCCNC(=N)N)C(=O)N[C@H](CCCNC(=N)N)C(=O)N[C@H](CCCNC(=N)N)C(=O)N[C@H](CCCNC(=N)N)C(=O)N[C@H](CCCNC(=N)N)C(=O)N[C@H](CCCCN)C(N)=O [ARC-3125, TIBI-CH2-C(=O)-Ahx-(D-Arg)6-D-Lys-NH2] | 84 ± 1% | 116 ± 16% | 71 ± 4% | 11 ± 11% | 97 ± 4% | 89 ± 9%
2 | N=C(N)NCCC[C@@H](NC(=O)CCCCCNCc1nc2c(sc3cc(Br)cnc32)c(=O)[nH]1)C(=O)N[C@H](CCCNC(=N)N)C(=O)N[C@H](CCCNC(=N)N)C(=O)N[C@H](CCCNC(=N)N)C(=O)N[C@H](CCCNC(=N)N)C(=O)N[C@H](CCCNC(=N)N)C(=O)N[C@H](CCCCN)C(N)=O [ARC-3126, BPTP-Ahx-(D-Arg)6-D-Lys-NH2] (X3-[dR][dR][dR][dR][dR][dR][dK]-NH2) | 132 ± 8% | 76 ± 15% | 99 ± 1% | 60 ± 6% | 107 ± 13% | 119 ± 6%
3 | N=C(N)NCCC[C@@H](NC(=O)CNC(=O)[C@@H](CCCNC(=N)N)NC(=O)[C@@H](CCCNC(=N)N)NC(=O)CCCCCCCNCc1nc2c(sc3cc(Br)cnc32)c(=O)[nH]1)C(=O)N[C@H](CCCCN)C(N)=O [Compound 1, BPTP-Aoc-(D-Arg)2-Gly-D-Arg-D-Lys-NH2] | 99 ± 6% | 107 ± 9% | 104 ± 4% | 94 ± 7% | 97 ± 2% | 107 ± 5%
4 | N=C(N)NCCC[C@@H](NC(=O)CNC(=O)[C@@H](CCCNC(=N)N)NC(=O)[C@@H](CCCNC(=N)N)NC(=O)CCCCCCCNCc1nc2c(sc3ccc(Br)cc32)c(=O)[nH]1)C(=O)N[C@H](CCCCN)C(N)=O [Compound 2, BBTP-Aoc-(D-Arg)2-Gly-D-Arg-D-Lys-NH2] | 106 ± 3% | 103 ± 2% | 99 ± 3% | 98 ± 5% | 103 ± 16% | 99 ± 6%
5 | N=C(N)NCCC[C@@H](NC(=O)CNC(=O)[C@@H](CCCNC(=N)N)NC(=O)[C@@H](CCCNC(=N)N)NC(=O)Cn1cc(CNCc2nc3c(sc4ccc(Br)cc43)c(=O)[nH]2)nn1)C(=O)N[C@H](CCCCN)C(N)=O [Compound 3, BBTP-Amt-(D-Arg)2-Gly-D-Arg-D-Lys-NH2] | 97 ± 3% | 52 ± 10% | 88 ± 12% | 113 ± 13% | 95 ± 5% | 108 ± 11%

From publication PMC8307404, “Crystal Structure-Guided Design of Bisubstrate Inhibitors and Photoluminescent Probes for Protein Kinases of the PIM Family” (Molecules, 2021)
